Columns and labels:
TL1A [1] = target: T1, TL1A (UniProt O95150 72-251, limits assumed); assay: selectivity ELISA: antibody pre-incubated with TL1A, inhibition of TL1A binding to plate-coated DR3
T1 construct: also called TNFSF15
T1 sequence (looked up): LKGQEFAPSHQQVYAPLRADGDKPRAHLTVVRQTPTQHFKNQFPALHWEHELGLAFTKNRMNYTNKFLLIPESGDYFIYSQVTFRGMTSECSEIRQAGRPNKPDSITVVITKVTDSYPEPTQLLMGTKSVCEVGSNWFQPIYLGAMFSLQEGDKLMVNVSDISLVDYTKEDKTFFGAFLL

TL1A [2] = target: T1, TL1A; assay: selectivity ELISA: antibody pre-incubated with TL1A, inhibition of TL1A binding to plate-coated DcR3

IC50 (TL1A [1]): 6.3 µg/mL
IC50 (TL1A [2]): 3.6 µg/mL
B1: MK-7240 (antibody, V domains shown)
VH: QVQLVQSGAEVKKPGASVKVSCKASGFDIQDTYMHWVKQRPGQGLEWMGRIDPASGHTKYDPKFQVRVTITRDTSTSTVYLELSSLRSEDTAVYYCARSGGLPDVWGQGTTVTVSS
VL: EIVLTQSPGTLSLSPGERATLSCRASSSVSYMYWYQQKPGQAPRPLIYATSNLASGIPDRFSGSGSGTDFTLTISRLEPEDFAVYYCQQWEGNPRTFGGGTKLEIK

From patent publication US20250109210A1 (ABSCI, published 2025)
